Assay results published in publication PMC3217979, “Thermostable Hexameric Form of Eis (Rv2416c) Protein of M. tuberculosis Plays an Important Role for Enhanced Intracellular Survival within Macrophages” (PLoS ONE, 2011).

Experiments:
[1] = biological target: the molecule itself; assay: SDS-PAGE of unboiled and boiled samples; 10 µg Eis in 1% SDS, 0.125 M Tris pH 6.8, boiled or unboiled; 10% acrylamide gel, 0.1% SDS in Tris/Glycine pH 8.0; Coomassie stain
[2] = biological target: the molecule itself; assay: SEC; […], pH 8.0, 25°C; […]

B1: Eis protein (Rv2416c) of M. tuberculosis (enzyme)
chain: MTVTLCSPTEDDWPGMFLLAAASFTDFIGPESATAWRTLVPTDGAVVVRDGAGPGSEVVGMALYMDLRLTVPGEVVLPTAGLSFVAVAPTHRRRGLLRAMCAELHRRIADSGYPVAALHASEGGIYGRFGYGPATTLHELTVDRRFARFHADAPGGGLGGSSVRLVRPTEHRGEFEAIYERWRQQVPGGLLRPQVLWDELLAECKAAPGGDRESFALLHPDGYALYRVDRTDLKLARVSELRAVTADAHCALWRALIGLDSMERISIITHPQDPLPHLLTDTRLARTTWRQDGLWLRIMNVPAALEARGYAHEVGEFSTVLEVSDGGRFALKIGDGRARCTPTDAAAEIEMDRDVLGSLYLGAHRASTLAAANRLRTKDSQLLRRLDAAFASDVPVQTAFEF
notes: also called aminoglycoside acetyltransferase Eis; recombinant Eis protein
stoichiometry N [1]: 3
stoichiometry N [2]: 6
